Experimental findings from article PMC2722949 (Journal of molecular biology, 2009) are described below.

Holding throughout (experiment): NMR titration
Assay [1] addresses Btk SH2 domain, wild type (UniProt Q06187 270-387).
The next assay deals with Btk SH2 domain H364D (UniProt Q06187 270-387, H364D).
Another assay concerns the target Btk SH2 domain S371P (UniProt Q06187 270-387, S371P).
Assay [2] deals with Itk SH2 domain E308A/K309A double mutant (mouse (the paper calls its residue numbers 'mouse numbering')).
The target of assay [3] is Itk SH2 domain, wild type (mouse (the paper calls its residue numbers 'mouse numbering')).

Where no end group is shown, it is not given here. [ ]: non-standard residue; d: D form. pY = N[C@@H](Cc1ccc(OP(=O)(O)O)cc1)C(=O)O

Sequence of Btk SH2 domain H364D (Q06187 270-387 H364D): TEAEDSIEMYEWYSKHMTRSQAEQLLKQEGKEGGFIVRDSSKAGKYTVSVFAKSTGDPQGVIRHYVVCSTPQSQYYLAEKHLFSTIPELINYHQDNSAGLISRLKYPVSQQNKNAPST
Sequence of Btk SH2 domain, wild type (Q06187 270-387): as the sequence (Q06187 270-387 H364D) above, with D95H counted along it
Sequence of Btk SH2 domain S371P (Q06187 270-387 S371P): as the sequence (Q06187 270-387 H364D) above, with D95H, S102P counted along it

B1: Btk SH2 phospho-peptide ligand (GDGpYEEISPLLL) (peptide)
peptide: GDG[pY]EEISPLLL
Broadly, the Kd is the constant that tells how readily two partners part at equilibrium. Lower therefore signals higher affinity. Take B1: the results for the Kd (in assay [1]; with Btk SH2 domain H364D; with Btk SH2 domain S371P) were 450 ± 40 µM, 500 ± 200 µM and 600 ± 110 µM, respectively.

B2: phospho-SLP76 peptide (ADpYEPP) (peptide)
peptide: AD[pY]EPP
As to B2, the Kd in assay [2] was 480 µM; in assay [3] it was 380 µM.
